T1: human IL-18BP (Homo sapiens, UniProt O95998)
T1 sequence (O95998 31-194): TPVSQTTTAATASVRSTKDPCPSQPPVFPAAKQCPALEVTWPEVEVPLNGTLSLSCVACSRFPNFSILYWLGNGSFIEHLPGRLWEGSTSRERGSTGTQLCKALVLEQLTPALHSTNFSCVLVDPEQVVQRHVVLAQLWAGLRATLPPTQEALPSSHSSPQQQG

B1: SEQ ID NO: 71: IL-18 polypeptide: N-terminal G, E6K, V11I, C38A, K53A, T63A, C76A, C127A (protein)
chain: GYFGKLKSKLSIIRNLNDQVLFIDQGNRPLFEDMTDSDARDNAPRTIFIISMYADSQPRGMAVAISVKCEKISTLSAENKIISFKEMNPPDNIKDTKSDIIFFQRSVPGHDNKMQFESSSYEGYFLAAEKERDLFKLILKKEDELGDRSIMFTVQNED
modifications: N-terminal G
notes: IL-18 polypeptide: N-terminal G, E6K, V11I, C38A, K53A, T63A, C76A, C127A
B2: SEQ ID NO: 70: IL-18 polypeptide: N-terminal G, E6K, V11I, C38A, M51G, K53A, T63A, C76A, C127A (protein)
chain: GYFGKLKSKLSIIRNLNDQVLFIDQGNRPLFEDMTDSDARDNAPRTIFIISGYADSQPRGMAVAISVKCEKISTLSAENKIISFKEMNPPDNIKDTKSDIIFFQRSVPGHDNKMQFESSSYEGYFLAAEKERDLFKLILKKEDELGDRSIMFTVQNED
modifications: N-terminal G
notes: IL-18 polypeptide: N-terminal G, E6K, V11I, C38A, M51G, K53A, T63A, C76A, C127A
B3: C179: IL-18 polypeptide: E6K, K8E, V11I, C38A, K53A, T63A, C76A, Q103R, C127A (protein)
chain: YFGKLKSELSIIRNLNDQVLFIDQGNRPLFEDMTDSDARDNAPRTIFIISMYADSQPRGMAVAISVKCEKISTLSAENKIISFKEMNPPDNIKDTKSDIIFFRRSVPGHDNKMQFESSSYEGYFLAAEKERDLFKLILKKEDELGDRSIMFTVQNED
B4: SEQ ID NO: 69: IL-18 polypeptide: E6K, V11I, C38A, M51G, K53A, T63A, C76A, C127A (protein)
chain: YFGKLKSKLSIIRNLNDQVLFIDQGNRPLFEDMTDSDARDNAPRTIFIISGYADSQPRGMAVAISVKCEKISTLSAENKIISFKEMNPPDNIKDTKSDIIFFQRSVPGHDNKMQFESSSYEGYFLAAEKERDLFKLILKKEDELGDRSIMFTVQNED
B5: C182: IL-18 polypeptide: E6K, V11I, C38A, K53A, T63A, C76A, C127A, V153Y (protein)
chain: YFGKLKSKLSIIRNLNDQVLFIDQGNRPLFEDMTDSDARDNAPRTIFIISMYADSQPRGMAVAISVKCEKISTLSAENKIISFKEMNPPDNIKDTKSDIIFFQRSVPGHDNKMQFESSSYEGYFLAAEKERDLFKLILKKEDELGDRSIMFTYQNED
B6: C181: IL-18 polypeptide: E6K, V11I, C38A, K53A, T63A, C76A, C127A, V153E (protein)
chain: YFGKLKSKLSIIRNLNDQVLFIDQGNRPLFEDMTDSDARDNAPRTIFIISMYADSQPRGMAVAISVKCEKISTLSAENKIISFKEMNPPDNIKDTKSDIIFFQRSVPGHDNKMQFESSSYEGYFLAAEKERDLFKLILKKEDELGDRSIMFTEQNED
B7: SEQ ID NO: 72: IL-18 polypeptide: N-terminal 4xG, E6K, V11I, C38A, K53A, T63A, C76A, C127A (protein)
chain: GGGGYFGKLKSKLSIIRNLNDQVLFIDQGNRPLFEDMTDSDARDNAPRTIFIISMYADSQPRGMAVAISVKCEKISTLSAENKIISFKEMNPPDNIKDTKSDIIFFQRSVPGHDNKMQFESSSYEGYFLAAEKERDLFKLILKKEDELGDRSIMFTVQNED
modifications: N-terminal 4xG
notes: IL-18 polypeptide: N-terminal 4xG, E6K, V11I, C38A, K53A, T63A, C76A, C127A

target: T1, human IL-18BP; assay: IL-18BP binding AlphaLISA assay (Example 4 / 17B); conditions: IL-18 binding protein AlphaLISA
Experimental: A human IL-18BP AlphaLISA Assay Kit is used to determine the binding affinity of each immunocytokine and IL-18 variant for IL-18BP, which detected the presence of free form IL-18BP.
Sixteen three-fold serial dilutions of IL-18 analytes are prepared in aMEM medium supplemented with 20% FCS, Glutamax, and 25 μM β-mercaptoethanol in the presence of 5 ng/mL of His-tagged human IL-18BP. Final IL-18 analytes concentration range from 2778 nM to 0.2 pM.
After 1 hr incubation at room temperature, free IL-18BP levels are measured using a […]. In a 384 well OPTIplate, 5 μL of 5× Anti-IL-18BP acceptor beads are added to 7.5 μL of an IL-18/IL-18BP mix. After 30 min incubation at room temperature with shaking, 5 μL of biotinylated Anti-IL-18BP antibodies are added to each well. The plate is incubated further for 1 hr at room temperature. Under subdued light, 12.5 μL of 2× streptavidin (SA) donor beads are pipetted into each well, and the wells are incubated with shaking for an additional 30 min at room temperature. The AlphaLisa signal is then measured on an Enspire plate reader with 680 and 615 nm as excitation and emission wavelengths, respectively. The dissociation constant (KD) is calculated based on a variable slope, four parameter analysis using GraphPad PRISM software.
17B—IL-18 BP AlphaLISA assay—An IL-18 binding protein AlphaLISA experiment substantially as described in Example 4 was performed on IL-18 polypeptide which can be incorporated into immunocytokine compositions as provided herein to assess ability to bind to IL-18BP.

Kd, > 2800 nM:
B1, B2, B3, B4, B5, B6, B7

— patent US12383631B2, “Immune antigen specific IL-18 immunocytokines and uses thereof” (Bright Peak Therapeutics AG, priority 2022, dated 2025)
